# In PMC8883962:
# Columns and labels:
# [1] = biological target: Streptococcal Protein G (SpG) (groups C and G of Streptococcal bacteria) (UniProt P06654); assay: BLI
# [2] = biological target: Staphylococcal Protein A (SpA) (Staphylococcus aureus) (UniProt P38507); assay: BLI
Substance,Kd [1] [nM],Kd [2] [nM]
Pertuzumab Vκ2–VH2 IgG1 (from UniProt P01857),0.36,1.82
Pertuzumab Vκ2–VH3 IgG1 (from UniProt P01857),0.38,0.76
Pertuzumab Vκ2–VH4 IgG1 (from UniProt P01857),0.25,1.57
Pertuzumab Vκ2–VH5 IgG1 (from UniProt P01857),0.3,1.62
Pertuzumab Vκ2–VH6 IgG1 (from UniProt P01857),0.32,1.55
Pertuzumab Vκ2–VH7 IgG1 (from UniProt P01857),0.36,–
Pertuzumab Vκ5–VH3 IgG1 (from UniProt P01857),0.34,0.94
Pertuzumab Vκ5–VH7 IgG1 (from UniProt P01857),0.32,–
Pertuzumab Vκ6–VH1 IgG1 (from UniProt P01857),0.29,0.94
Pertuzumab Vκ6–VH2 IgG1 (from UniProt P01857),0.31,0.79
Pertuzumab Vκ6–VH3 IgG1 (from UniProt P01857),0.28,0.41
Pertuzumab Vκ6–VH4 IgG1 (from UniProt P01857),0.27,0.81
Pertuzumab Vκ6–VH5 IgG1 (from UniProt P01857),0.26,1.26
Pertuzumab Vκ6–VH7 IgG1 (from UniProt P01857),0.28,0.98
Trastuzumab Vκ2–VH1 IgG1 (from UniProt P01857),0.39,–
Trastuzumab Vκ2–VH2 IgG1 (from UniProt P01857),0.69,1.46
Trastuzumab Vκ2–VH3 IgG1 (from UniProt P01857),0.29,0.24
Trastuzumab Vκ2–VH4 IgG1 (from UniProt P01857),0.28,1.29
Trastuzumab Vκ2–VH5 IgG1 (from UniProt P01857),0.27,1.11
Trastuzumab Vκ2–VH6 IgG1 (from UniProt P01857),–,1.79
Trastuzumab Vκ2–VH7 IgG1 (from UniProt P01857),0.23,0.53
Trastuzumab Vκ5–VH3 IgG1 (from UniProt P01857),0.32,–
Trastuzumab Vκ6–VH1 IgG1 (from UniProt P01857),0.32,–
Trastuzumab Vκ6–VH3 IgG1 (from UniProt P01857),0.27,0.31
Trastuzumab Vκ6–VH4 IgG1 (from UniProt P01857),0.36,–
Trastuzumab Vκ6–VH5 IgG1 (from UniProt P01857),–,0.84
Trastuzumab Vκ6–VH6 IgG1 (from UniProt P01857),0.51,1.78
Trastuzumab Vκ6–VH7 IgG1 (from UniProt P01857),0.3,0.6
